Key:
[1] = Measurement of bleeding time (tail vein incision); assay type: in vivo; conditions: mice not subjected to other manipulation; intravenous
Method: Measurement of Bleeding Time: Bleeding times were measured in mice which were not subjected to experimental manipulation other than by receiving either vehicle (saline) or CD39 prepared in physiological saline and administered intravenously 5 minutes prior to the experiment. Following anesthesia, a standardized incision was made on the central dorsal tail vein, and the tail was then immersed in physiological saline at 37.5° C.

[2] = tested on: stroke (focal cerebral ischemia and reperfusion); conditions: for postischemic cerebral perfusion (cerebral blood flow): laser Doppler, ischemic vs nonischemic hemisphere; for cerebral infarct volume: preoperatively administered, CD39 4 and 8 mg/kg, aspirin 5 mg/kg, 24 hours
[3] = tested on: murine platelets; experiment: Murine platelet aggregation (aggregometry of platelet-rich plasma from treated mice); assay type: cell-based; conditions: for platelet aggregation response to ADP: ADP 2.5 or 10 μM, CD39 4 mg/kg, aspirin 5 mg/kg; for platelet aggregation response to ADP / platelet aggregation response to collagen / platelet aggregation response to sodium arachidonate: agent given to mice 45 minutes prior to harvest of blood; for platelet aggregation response to collagen: collagen 2.5 or 10 μg/mL; for platelet aggregation response to sodium arachidonate: sodium arachidonate 0.1 mM
Method: Preparation of Murine Platelets: Mice (untreated, treated with 4 mg/kg CD39, or treated with […]) were anesthetized and heparinized (10 U/g), prior to blood collection via cardiac puncture performed with 22 gauge, 1 cc syringe. Immediately following collection, 80 μl 3.8% trisodium citrate was added to each mL of blood. Blood from 6-8 mice was pooled in a 15 mL tube centrifuge tube (Flacon, polypropylene). Platelet-rich plasma (PRP) was prepared with an initial whole blood centrifugation (900 g, 3 min, 20° C., no brake), and a second centrifugation of PRP (100 g, 2 min) to eliminate residual erythrocytes and leukocytes. The stock suspension of PRP was maintained at room temperature. PRP platelet counts were 400-700×10^3 platelets per μl.
Platelet aggregation studies: PRP (200 μl) was pre-incubated (3 min, 37° C.) with 100 μl Tris-buffered saline (TSG) buffer (15 mM Tris, 134 mM NaCl, 5 mM glucose, pH 7.4) in an aggregometer cuvette (Lumiaggregometer; Chrono-Log, Havertown, Pa.). After the 3 min, 37° C. preincubation ≈5.0 C 10^5 platelets, platelet agonist (ADP, collagen, sodium arachidonate) were added at the concentration indicated. Total volumes were adjusted to 300 μl with TSG buffer, and the aggregation response recorded for 2-4 min. Agonists were prepared as 100× solution: ADP was in TSG buffer, collagen in acidified isotonic glucose ([…], Munchen, Germany), and sodium arachidonate in 0.85% saline. All aggregation studies were completed within two hours of blood collection.
Quantitation of Platelet Aggregation: Area under the curve was estimated by multiplying the height of the curve with its width at half height. The former was measured form pre-simulation baseline to the middle of the highest point of the curve. However, when curves were less than ⅓ of maximal height, the lowest point of the shape change portion of the curve was considered baseline. […] These criteria underestimate large aggregation responses, and overestimate small ones. Thus we knowingly underestimated the effects of compounds with great inhibitory capacity. This approach was preferred over one that could have overemphasized inhibitory potential.
Murine platelet aggregation: C57/6J BL mice (6-8 weeks) were obtained from Jackson Laboratories, Bar Harbor, Me.). Untreated mice, and mice treated with 4 mg/kg CD39, with 5 mg/kg aspirin or phosphate buffered saline, were anesthetized and heparinized (10 U/g), prior to blood collection via cardiac puncture; 80 μL 3.8% trisodium citrate was added to each mL of blood. Samples from 6-8 mice were pooled and platelet-rich plasma (PRP) prepared by centrifugation (900 g, 3 min, 20° C., followed by 100 g, 2 min to eliminate residual erythrocytes and leukocytes). PRP contained 400-700×10^3 platelets per μL. PRP (200 μL) was preincubated (3 min, 37° C.) with 100 μL Tris-buffered saline (TSG) buffer (15 mM Tris, 134 mM NaCl, 5 mM glucose, pH 7.4)^11,23,24 in an aggregometer cuvette (Lumiaggregometer; Chrono-Log, Havertown, Pa.). Platelet agonists (ADP, collagen (Hormon Chemie, Munchen, Germany), or sodium arachidonate (Nu-Check Prep, Elysian, Minn.)) were added at the final concentrations indicated. Aggregation responses were recorded for 2-4 min, and expressed as area under the curve (height times width at ½ height). All experiments were completed within two hours of blood collection.

[4] = tested on: lung ischemia and reperfusion; experiment: Mouse model of lung ischemia and reperfusion; assay type: in vivo, mice; conditions: CD39 8 mg/kg; 1 hour ischemia, 2 hour reperfusion, observation 1 hour; four experiments
Method: In these studies, murine ischemic reperfusion model was used. In the mouse model of lung ischemia, mice were initially anesthetized intraperitoneal with 0.1 mg/mouse weight (g) of ketamine and 0.01 mg/mouse weight (g) of xylazine, following by intraperitoneal continuous infusion of one third of the initial dose per hour using a syringe pump (model 100 series, KD Scientific Inc. Mass.). After ensuring appropriate depth of anesthesia, mice were intubated via tracheostomy and placed on a Harvard ventilator (tidal volume=0.75 mL, respiratory rate=120/min) with room air, followed by bilateral thoracotomy. The left hilum was cross-clamped for a period of 1 hour after which the cross-clamp was released. Reperfusion proceeded for 2 hours.
For all experiments, the surgical operator was blinded by a colleague in the laboratory to the specific substance being injected (vehicle or CD39, 8 mg/kg). Experimental procedures were as follows. […]

[5] = tested on: stroke in CD39-/- mice
[6] = tested on: platelets; conditions: cited from earlier work
[7] = cited from earlier work
[8] = peptide affinity purified from CHO conditioned medium; cited from earlier work
[9] = treatment either prior to, or up to 3 hours following stroke
[10] = control, CD39-/- and reconstituted CD39-/- mice

## CC(=O)Oc1ccccc1C(=O)O [aspirin, reference compound]
[1]
  bleeding time: markedly increased
[2]
  postischemic cerebral perfusion (cerebral blood flow): did not improve
  cerebral infarct volume: tendency to decrease cerebral infarct volume, the effect was not statistically significant
[3]
  platelet aggregation response to ADP: strongly aggregated
  platelet aggregation response to collagen: strongly aggregated
  platelet aggregation response to sodium arachidonate: abrogated
[3]; any collagen dose
  platelet reactivity to collagen at any collagen dose: little effect

B1: CD39: recombinant soluble CD39 (SEQ ID NO:2): four apyrase domains, lacking the two transmembrane regions, IL-2 leader, expressed in CHO cells (protein, listed as Homo sapiens)
chain: TQNKALPENVKYGIVLDAGSSHTSLYIYKWPAEKENDTGVVHQVEECRVKGPGISKFVQKVNEIGIYLTDCMERAREVIPRSQHQETPVYLGATAGMRLLRMESEELADRVLDVVERSLSNYPFDFQGARIITGQEEGAYGWITINYLLGKFSQKTRWFSIVPYETNNQETFGALDLGGASTQVTFVPQNQTIESPDNALQFRLYGKDYNVYTHSFLCYGKDQALWQKLAKDIQVASNEILRDPCFHPGYKKVVNVSDLYKTPCTKRFEMTLPFQQFEIQGIGNYQQCHQSILELFNTSYCPYSQCAFNGIFLPPLQGDFGAFSAFYFVMKFLNLTSEKVSQEKVTEMMKKFCAQPWEEIKTSYAGVKEKYLSEYCFSGTYILSLLLQGYHFTADSWEHIHFIGKIQGSDAGWTLGYMLNLTNMIPAEQPLSTPLSHST
[1]
  bleeding time: dose-dependent increase
[2]; administered three hours after onset of stroke (8 mg/kg)
  cerebroprotection: significant cerebroprotection
[2]; intravenously injected, 111In-labeled platelets, 24 hours of reperfusion
  platelet accumulation in the ipsilateral cerebral hemisphere: inhibited
[2]; intravenously injected, fibrin immunoblot
  fibrin accumulation in the ipsilateral cerebral hemisphere: inhibited
[2]
  postischemic cerebral perfusion (cerebral blood flow): improved
  cerebral infarct volume: dose-dependent diminution
[2]; mouse, in vivo
  intracerebral hemorrhage: without an increase
[2]; [9]
  mortality: reduced
  neurological deficit: reduced
[3]
  platelet aggregation response to ADP: completely abrogated
  platelet aggregation response to collagen: attenuated
  platelet aggregation response to sodium arachidonate: did not inhibit the initial activation phase of platelet aggregation to arachidonate, but rapidly disaggregated platelets during the initial recruitment phase
[3]; higher doses of collagen
  platelet reactivity to higher doses of collagen: do respond
[3]; low-dose collagen
  platelet reactivity to low-dose collagen: inhibited
[4]
  mouse survival following functional removal of the contralateral (nonischemic) lung: 100%
[5]; CD39-/- mice reconstituted with CD39, 24 hours
  cerebral infarct volume: markedly diminished
[5]; [10]
  intracerebral hemorrhage: did not differ between groups
  neurological deficit scores: did not differ between groups
  overall mortality: did not differ between groups
[6]
  ADP-induced platelet aggregation in vitro: blocked
[7]
  elimination half-time in mice: 2 days
[8]
  apyrase activity: potent apyrase activity

Reference: patent US6867177B2, “CD39/ECTO-adpase as a treatment for thrombotic and ischemic disorders” (The Trustees of Columbia University in the City of New York, priority 1999, dated 2005)
